Source: patent publication US20100080799

System: recombinant H2A.X (WT), N-terminal 6xHis tag

Substance: recombinant N-terminal portion of WSTF (N-WSTF)
- kinase activity (in vitro kinase assay): Only N-WSTF had kinase activity
